B1: full-length transducer NpHtrII from Natronomonas pharaonis (natural protein)
chain: not shown
notes: Sensory rhodopsin II transducer (NpHtrII), Natronomonas pharaonis, UniProt P42259; gene optimised for expression in E. coli; also called cognate transducer; source: E. coli BL21-AI (SAXS) or BL21(DE3) (SANS), co-expressed with NpSRII, solubilised in DDM, purified (Ni-NTA, SEC); not shown: 6xHis-tag (with ENS-linker), C-terminal, kept
B2: full-length NpSRII/NpHtrII complex (complex)
chain 1: MVGLTTLFWLGAIGMLVGTLAFAWAGRDAGSGERRYYVTLVGISGIAAVAYVVMALGVGWVPVAERTVFAPRYIDWILTTPLIVYFLGLLAGLDSREFGIVITLNTVVMLAGFAGAMVPGIERYALFGMGAVAFLGLVYYLVGPMTESASQRSSGIKSLYVRLRNLTVILWAIYPFIWLLGPPGVALLTPTVDVALIVYLDLVTKVGFGFIALDAAATLRAEHGESLAGVDTDAPAVAD
chain 2: not shown
notes: Sensory rhodopsin II (NpSRII), Natronomonas pharaonis, UniProt P42196; no limits stated; as m1; Sensory rhodopsin II transducer (NpHtrII), Natronomonas pharaonis, UniProt P42259; as m2; also called sensory rhodopsin II/transducer complex; full-length phototaxis complex; source: E. coli BL21-AI (SAXS) or BL21(DE3) (SANS), co-expressed, solubilised in DDM, purified (Ni-NTA, SEC); not shown: …

Experiments:
[1] = molecular target: the molecule itself; assay: SANS; full-length complex 0.40 mg/ml in D2O buffer, 4.0 M NaCl, 100 mM Na/Na-Pi pD 8.0, 1 mM EDTA, 0.05% DDM; OLIGOMER fit to a mixture of dimers and trimers of dimers (trimer of dimers = six NpSRII/NpHtrII units)
[2] = molecular target: the molecule itself; assay: SAXS; detergent-solubilised (DDM) complex, peak fractions after gel filtration; low salt (150 mM NaCl); 0.57 mg/ml full-length and 0.78 mg/ml truncated complex; BM29 (ESRF); curves fitted with atomistic dimer models with a detergent belt (MEMPROT, CRYSOL3)

Protein	binding result [1]	stoichiometry N [2]	stoichiometry N [1]
B1	binds	–	–
B2	–	2	6
